Assay results taken from the supplement of paper PMC9732359.
± gives the uncertainty stated by the source.

Test: protein stability index of a GFP-peptide fusion (yeast GPS) (PSI 1-4); higher = more stable; sorted into four equal gates, so the index is relative within each strain
How it was run: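 Mid-log yeast cultures in leucine-free medium, carrying a pooled plasmid library, were sorted into four equal gates by their GFP/Cherry fluorescence ratio. Each plasmid expressed Cherry along with GFP fused upstream of a tiled 17-residue yeast protein peptide. Plasmids recovered from each gate were PCR-amplified and Illumina-sequenced, with reads assigned to strains by barcodes. The protein stability index was obtained by summing each gate's read frequency weighted by its gate number.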

Sequence	protein stability index (doa10∆)	protein stability index (pdr5∆)	protein stability index (san1∆)	protein stability index (ubr1∆)
IVKFKQKEEGRSFTKAI [YLR335W/NUP2]	3.13 ± 0.069	3.09 ± 0.066	3.24 ± 0.05	3.29 ± 0.047
KLWFQLSESLTKFFDDA [RPN9]	3.02 ± 0.083	3.24 ± 0.099	3.02 ± 0.066	3.17 ± 0.097
ILNDIETLEHNPVALEQ [BRR2]	2.95 ± 0.08	3.25 ± 0.1	3.18 ± 0.079	3.13 ± 0.077
QLQGPQWMNEMVERWAN [SOH1]	3.28 ± 0.11	3.18 ± 0.091	2.93 ± 0.099	3.06 ± 0.084
LIIDEIHLLHDDRGPVL [BRR2]	2.98 ± 0.1	2.98 ± 0.1	3.23 ± 0.046	2.88 ± 0.099
IVAALPISEKGLTLSTT [RPP1]	2.11 ± 0.087	2.61 ± 0.063	2.65 ± 0.057	2.48 ± 0.094
VFNDAHVLNKVTLASIL [RPN1]	2.21 ± 0.091	2.09 ± 0.065	2.45 ± 0.096	2.03 ± 0.05
DKDNAEKTLGKSLSKAI [RPN7]	2.27 ± 0.12	2.67 ± 0.21		
IITNINAIFLSSEQDYS [YCG1]	2.54 ± 0.078	2.58 ± 0.13	1.58 ± 0.22	2.89 ± 0.098
VPIKSSKSGRIFALVFS [RPN13]	2.57 ± 0.14	2.41 ± 0.091	2.41 ± 0.096	2.63 ± 0.1
KIGEEDYGEEIKSGVAK [MTW1]		2.93 ± 0.14		3.31 ± 0.12
KSSILTVLQKNSLLLDS [YML103C/NUP188]	1.84 ± 0.056	1.71 ± 0.08	1.56 ± 0.075	2.36 ± 0.085
ELSRIENEVENINATNT [YCS4]	3.52 ± 0.16	3.11 ± 0.11	3.23 ± 0.053	3.14 ± 0.11
VYKIYNHVMPLKPVDKL [SIN4]	1.84 ± 0.064	1.97 ± 0.072	1.63 ± 0.11	1.62 ± 0.051
QQQPQPQYNMNMGMNNM [PGD1]	3.02 ± 0.049	2.77 ± 0.05	3.29 ± 0.041	2.89 ± 0.069
SVRLFSFLDPLNYGNIC [YJL039C/NUP192]	1.88 ± 0.053	2.21 ± 0.069	2.47 ± 0.061	2 ± 0.063
ICIVGGYDDFQEEGSFE [FAS2]	2.98 ± 0.16	2.5 ± 0.11	3.5 ± 0.1	
GMMSTTGTARLNSMPNN [YJL039C/NUP192]		2.99 ± 0.15	3.1 ± 0.089	3.22 ± 0.11
EDFQKRQQKLLEDQQRQ [SWI1]	3.21 ± 0.11	3.16 ± 0.051	3.14 ± 0.057	3.19 ± 0.047
SILDDIKLSLKDKTKNI [SMC4]	2.88 ± 0.06	2.94 ± 0.059	2.8 ± 0.06	3 ± 0.062
DNKINEIKLLEISCKQW [CSI1]	2.54 ± 0.18	2.43 ± 0.17	2.17 ± 0.12	2.45 ± 0.12
IGVIQLAHYVVTAKLLG [FAS1]	1.51 ± 0.066	1.23 ± 0.04	1.24 ± 0.09	1.35 ± 0.053
NILFSLWKLLSTVKVSD [YLR018C/POM34]	1.76 ± 0.07	1.46 ± 0.058	1.58 ± 0.12	1.55 ± 0.057
PEYGRIIASASYDKTVK [YGL100W/SEH1]	2.27 ± 0.079	2.28 ± 0.082	3.03 ± 0.087	2.11 ± 0.056
SVAPTKQREIVKAFLSI [NUT1]	2.1 ± 0.11	1.94 ± 0.073	2.41 ± 0.13	2.04 ± 0.063
STVSGELNDNPAWFNNP [YMR153W/NUP53]	3.36 ± 0.086	3.47 ± 0.056	3.29 ± 0.044	3.35 ± 0.049
SKKETKLQENRTLLTEE [SMC2]		3.23 ± 0.24		3.08 ± 0.14
